Positions count from the first letter of the chain named. Names may count otherwise.
B1: human Parkin R0RBR (141-465) (domain or fragment)
chain: SIYNSFYVYCKGPCQRVQPGKLRVQCSTCRQATLTLTQGPSCWDDVLIPNRMSGECQSPHCPGTSAEFFFKCGAHPTSDKETSVALHLIATNSRNITCITCTDVRSPVLVFQCNSRHVICLDCFHLYCVTRLNDRQFVHDPQLGYSLPCVAGCPNSLIKELHHFRILGEEQYNRYQQYGAEECVLQMGGVLCPRPGCGAGLLPEPDQRKVTCEGGNGLGCGFAFCRECKEAYHEGECSAVFEASGTTTQAYRVDERAAEQARWEAASKETIKKTTKPCPRCHVPVEKNGGCMHMKCPQPQCRLEWCWNCGCEWNRVCMGDHWFDV
B2: human Parkin R0RBR K211N (141-465) (domain or fragment)
chain: B1 chain with K71N

Target: phospho-NEDD8 (human (cDNA from HEK393T cells), UniProt Q15843 1-76, phosphoserine at 65)
Test: crystal structure

Row | Binder | binding result
1 | B1 | binds
2 | B2 | binds

Source: paper doi:10.1101/2023.11.21.568018 (bioRxiv, 2023)
